Test [1] has as its target Neuronal precursor cell expressed developmentally downregulated 4-2 (NEDD4-2) (mouse (endogenous in hippocampus)) (UniProt Q8CFI0). Nature of the test: co-IP; mouse hippocampal tissue lysed in RIPA buffer with protease and phosphatase inhibitors; equal protein incubated with NEDD4-2, ubiquitin or GluA1 antibody and protein G sepharose at 4 °C overnight; western blot; WT, PLPP/CIN^-/- and PLPP/CIN^Tg mice, saline or KA (25 mg/kg, 2 h), control or NEDD4-2 siRNA. In general terms: A western blot detects proteins with antibodies after separation by electrophoresis.

The target in test [2] is T1, Neuronal precursor cell expressed developmentally downregulated 4-2 (NEDD4-2) (mouse (endogenous in hippocampus), UniProt Q8CFI0 1-1004).
T1 construct: NEDD4-2 E3 ubiquitin ligase, endogenous in mouse hippocampus; S222 and S328 in murine NEDD4-2; source: endogenous, mouse hippocampal tissue lysate (RIPA buffer)
T1 sequence (looked up): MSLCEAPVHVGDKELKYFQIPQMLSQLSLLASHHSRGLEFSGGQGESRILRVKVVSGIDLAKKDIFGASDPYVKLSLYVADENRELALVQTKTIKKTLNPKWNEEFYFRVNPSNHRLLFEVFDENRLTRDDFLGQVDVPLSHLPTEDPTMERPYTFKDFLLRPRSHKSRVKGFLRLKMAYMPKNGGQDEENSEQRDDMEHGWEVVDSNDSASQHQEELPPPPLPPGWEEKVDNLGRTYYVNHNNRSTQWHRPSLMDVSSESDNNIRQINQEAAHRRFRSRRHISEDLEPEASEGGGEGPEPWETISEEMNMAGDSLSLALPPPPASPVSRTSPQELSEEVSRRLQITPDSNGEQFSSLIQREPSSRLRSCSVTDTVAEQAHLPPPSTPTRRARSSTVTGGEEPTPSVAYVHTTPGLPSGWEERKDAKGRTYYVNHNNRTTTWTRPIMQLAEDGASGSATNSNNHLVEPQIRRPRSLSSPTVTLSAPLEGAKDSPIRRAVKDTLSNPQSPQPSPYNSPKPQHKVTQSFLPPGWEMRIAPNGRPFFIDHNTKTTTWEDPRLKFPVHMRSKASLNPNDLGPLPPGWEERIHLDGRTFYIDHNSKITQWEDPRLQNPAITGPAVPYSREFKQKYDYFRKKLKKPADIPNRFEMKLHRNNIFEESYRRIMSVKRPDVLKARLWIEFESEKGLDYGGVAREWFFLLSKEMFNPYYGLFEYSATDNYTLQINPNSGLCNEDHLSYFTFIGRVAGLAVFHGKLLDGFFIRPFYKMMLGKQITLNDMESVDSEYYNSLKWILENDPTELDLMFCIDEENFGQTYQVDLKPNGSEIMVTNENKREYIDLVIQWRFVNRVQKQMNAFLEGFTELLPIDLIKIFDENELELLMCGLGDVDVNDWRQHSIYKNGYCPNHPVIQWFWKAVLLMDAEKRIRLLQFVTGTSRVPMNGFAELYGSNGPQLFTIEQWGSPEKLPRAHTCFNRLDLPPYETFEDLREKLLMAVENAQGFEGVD
Described as above. As to conditions: partners not purified.

The target in test [3] is T2, full-length recombinant human NEDD4-2, phosphorylated by SGK1 (human, UniProt Q96PU5 1-975, phosphorylated by incubation with 200 U/μl SGK1 and 100 μM ATP (S342 and S448 phosphorylation followed by western blot)).
T2 construct: human NEDD4-2, full-length recombinant protein (Abcam); SGK1 and ATP were still in the sample when PLPP/CIN was added; source: bought: Abcam; phosphorylated in vitro with SGK1 (SignalChem) and ATP
T2 sequence (looked up): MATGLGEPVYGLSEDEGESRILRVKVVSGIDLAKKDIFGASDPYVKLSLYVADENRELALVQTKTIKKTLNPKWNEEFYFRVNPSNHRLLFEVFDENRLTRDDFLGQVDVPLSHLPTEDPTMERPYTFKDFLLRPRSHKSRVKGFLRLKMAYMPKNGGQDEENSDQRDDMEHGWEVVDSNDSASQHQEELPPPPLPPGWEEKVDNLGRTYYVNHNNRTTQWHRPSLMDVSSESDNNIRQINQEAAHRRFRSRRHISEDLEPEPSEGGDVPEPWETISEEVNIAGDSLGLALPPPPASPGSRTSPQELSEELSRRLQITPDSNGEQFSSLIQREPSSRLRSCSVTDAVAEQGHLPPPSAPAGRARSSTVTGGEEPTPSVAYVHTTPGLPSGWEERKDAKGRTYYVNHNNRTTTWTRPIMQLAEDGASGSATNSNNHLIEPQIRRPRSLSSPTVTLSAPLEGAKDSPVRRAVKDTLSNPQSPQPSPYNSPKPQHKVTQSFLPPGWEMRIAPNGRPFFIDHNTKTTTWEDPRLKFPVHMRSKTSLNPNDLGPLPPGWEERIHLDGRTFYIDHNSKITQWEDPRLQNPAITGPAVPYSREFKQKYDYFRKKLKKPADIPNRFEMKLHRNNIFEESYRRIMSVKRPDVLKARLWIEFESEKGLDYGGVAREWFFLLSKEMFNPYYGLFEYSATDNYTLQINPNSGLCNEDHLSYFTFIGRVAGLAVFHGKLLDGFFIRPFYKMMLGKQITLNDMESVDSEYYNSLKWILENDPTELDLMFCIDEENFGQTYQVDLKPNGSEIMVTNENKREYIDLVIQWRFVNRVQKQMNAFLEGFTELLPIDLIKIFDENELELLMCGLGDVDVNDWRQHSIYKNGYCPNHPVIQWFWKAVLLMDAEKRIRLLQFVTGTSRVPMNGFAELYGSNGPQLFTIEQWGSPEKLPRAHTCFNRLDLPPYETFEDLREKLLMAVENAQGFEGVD
Nature of the test: co-IP; in vitro with recombinant proteins: NEDD4-2 (10 ng/μl) phosphorylated with 200 U/μl SGK1 and 100 μM ATP in kinase assay buffer I at 30 °C for 1 h, then PLPP/CIN (10 ng/μl) added, 30 °C for 1 h; coprecipitation and western blot. As to conditions: both partners purified.

This is an account of results in PMC6639327, “PLPP/CIN-mediated NEDD4-2 S448 dephosphorylation regulates neuronal excitability via GluA1 ubiquitination” (Cell Death & Disease, 2019).

Molecule “PLPP/CIN in PLPP/CIN transgenic (PLPP/CIN^Tg) mice (from UniProt P60487 1-292)” displayed a fold of the binding in WT mice in test [1] of 1.4 fold.

B1: Pyridoxal-5'-phosphate phosphatase/chronophin (PLPP/CIN) (enzyme, mouse (endogenous in hippocampus), UniProt P60487 1-292, looked up)
chain: MARCERLRGAALRDVLGQAQGVLFDCDGVLWNGERIVPGAPELLQRLARAGKNTLFVSNNSRRARPELALRFARLGFAGLRAEQLFSSALCAARLLRQRLSGPPDASGAVFVLGGEGLRAELRAAGLRLAGDPGEDPRVRAVLVGYDEQFSFSRLTEACAHLRDPDCLLVATDRDPWHPLSDGSRTPGTGSLAAAVETASGRQALVVGKPSPYMFQCITEDFSVDPARTLMVGDRLETDILFGHRCGMTTVLTLTGVSSLEEAQAYLTAGQRDLVPHYYVESIADLMEGLED
notes: Pyridoxal-5'-phosphate phosphatase/chronophin, endogenous in the hippocampus of WT mice; source: endogenous, mouse hippocampal tissue lysate (RIPA buffer)
For B1, the “fold of control level (2 h after KA, WT mice)” value in test [2] was roughly 1.4 fold.

B2: recombinant human PLPP/CIN protein (enzyme, UniProt Q96GD0 1-296, looked up)
chain: MARCERLRGAALRDVLGRAQGVLFDCDGVLWNGERAVPGAPELLERLARAGKAALFVSNNSRRARPELALRFARLGFGGLRAEQLFSSALCAARLLRQRLPGPPDAPGAVFVLGGEGLRAELRAAGLRLAGDPSAGDGAAPRVRAVLVGYDEHFSFAKLREACAHLRDPECLLVATDRDPWHPLSDGSRTPGTGSLAAAVETASGRQALVVGKPSPYMFECITENFSIDPARTLMVGDRLETDILFGHRCGMTTVLTLTGVSRLEEAQAYLAAGQHDLVPHYYVESIADLTEGLED
notes: human pyridoxal-5'-phosphate phosphatase/chronophin, recombinant protein (Abcam); The sentence reads 'full-length recombinant human NEDD4-2 (Abcam, UK) and human PLPP/CIN proteins'; whether 'full-length' also covers PLPP/CIN is not clear; source: bought: Abcam
On to B2, for which, in test [3], the binding result is given as “binds”.
